B1: Lxmdh (methanol dehydrogenase, Mdh, NAD-dependent) (Lysinibacillus xylanilyticus) (protein)
chain: MSDVLKQFVMPKTNLFGPGAIQEVGTRLNDLEVKKTLIVTDEGLHKLGLSEQIANIITAAGIDVAIFPKAEPNPTDQNIEDGIAVYHAENCDSIVSLGGGSAHDAAKGIGLIASNGGRIHDYEGVDKSQNPLVPLIAINTTAGTASEMTRFTIITDTARKVKMAIVDKHVTPLLSINDPELMIGLPPALTAATGLDALTHAIESFVSTNATPITDACAEKVLQLVPEYLPRAYANGADLEAREQMVYAQFLAGMAFNNASLGYVHAIAHQLGGFYNLPHGVCNAILLPHVCRFNLTARTERFARIAELLGENVEALSKRDAAEKAIVAIENLSRDLNIPSGFRELGAKDEDIEILAKNAMLDVCAATNPRKATLEEIKQIITNAMGPVAKKEESLEAVALS
notes: His-tagged (pET28a; cloning primers indicate N-terminal His/thrombin tag and native stop), expressed in E. coli, Ni-NTA purified; cloning primers encode N-terminus MSDVLK and C-terminus KAVALS
B2: Lxmdh (methanol dehydrogenase, Mdh, NAD-dependent) (Lysinibacillus xylanilyticus; E396V) (protein)
chain: B1 chain with E396V
notes: as for B1
B3: Lxmdh (methanol dehydrogenase, Mdh, NAD-dependent) (Lysinibacillus xylanilyticus; K46E) (protein)
chain: B1 chain with K46E
notes: as for B1
B4: Lxmdh (methanol dehydrogenase, Mdh, NAD-dependent) (Lysinibacillus xylanilyticus; K318N) (protein)
chain: B1 chain with K318N
notes: as for B1
B5: Lxmdh (methanol dehydrogenase, Mdh, NAD-dependent) (Lysinibacillus xylanilyticus; E396V/K318N) (protein)
chain: B1 chain with K318N, E396V
notes: as for B1

Residue numbers refer to the chain shown, from its start. Numbers in names are those of the source.

For orientation: Km means the concentration of substrate that gives half-maximal velocity. For orientation: kcat means the number of substrate molecules converted per active site and unit of time at saturation.

Substrate in this data set: CO
Nature of the data set: HPLC of formaldehyde after O-benzylhydroxylamine derivatization; Michaelis-Menten nonlinear fit. To be noted: 3 mM NAD+, 5 mM Mg2+, 50 mM CHES pH 9.5, 55 °C, 10 min, 0-5 mM methanol. The data set is classed as biochemical, Lysinibacillus xylanilyticus. The text has this:
HPLC of formaldehyde after O-benzylhydroxylamine derivatization; Michaelis-Menten nonlinear fit on Lxmdh (methanol dehydrogenase, Mdh, NAD-dependent)
B1: the Km worked out at 1311 ± 406 µM and the kcat was 0.0333 ± 0.00333 s⁻¹.
B2: the Km is 10 ± 3 µM and the turnover number (kcat) turned out to be 0.02 ± 0.00167 s⁻¹.
Taken in the same sequence, the figures for B3 were 372 ± 231 µM and 0.0283 ± 0.00333 s⁻¹.
Consider B4, for which the Km was determined as 46 ± 72 µM and the kcat was 0.0267 ± 0.005 s⁻¹.
Taken in the same sequence, the figures for B5 were 233 ± 107 µM and 0.0217 ± 0.00167 s⁻¹.

For the origin of these results see publication PMC7867188, “Biosensor-Based Directed Evolution of Methanol Dehydrogenase from Lysinibacillus xylanilyticus” (International Journal of Molecular Sciences, 2021).
